Molecular target: SARS-CoV-2 spike protein ectodomain mutant S12AAA (L1145A-F1148A-L1152A) (SARS-CoV-2), P0DTC2
Experiment: pull-down
Conditions: remark: other sources report otherwise

B1: resistance to inhibitor of cholinesterase-3 (RIC3), Q7Z5B4 29-369 (natural protein)
chain: SRGKRQEPPPTPEGKLGRFPPMMHHHQAPSDGQTPGARFQRSHLAEAFAKAKGSGGGAGGGGSGRGLMGQIIPIYGFGIFLYILYILFKLSKGKTTAEDGKCYTAMPGNTHRKITSFELAQLQEKLKETEAAMEKLINRVGPNGESRAQTVTSDQEKRLLHQLREITRVMKEGKFIDRFSPEKEAEEAPYMEDWEGYPEETYPIYDLSDCIKRRQETILVDYPDPKELSAEEIAERMGMIEEEESDHLGWESLPTDPRAQEDNSVTSCDPKPETCSCCFHEDEDPAVLAENAGFSADSYPEQEETTKEEWSQDFKDEGLGISTDKAYTGSMLRKRNPQGLE
  decrease in RIC3 binding vs S12: 67%

From publication PMC9923440
